This is an account of results in US20230242607A1 (EUTILEX, published 2023).

Like-named read-outs stand apart in the source and are kept apart here.

Holding throughout (assay): SPR, Biacore T200; IL-2-Fc on CM5 chip, receptor injected; 1:1 model
In assay [1] the target is T1, IL2-RB (UniProt P14784 27-239, limits assumed).
T1 construct: Bought recombinant protein (Sino); also called CD122; IL-2Rβ
T1 sequence (looked up): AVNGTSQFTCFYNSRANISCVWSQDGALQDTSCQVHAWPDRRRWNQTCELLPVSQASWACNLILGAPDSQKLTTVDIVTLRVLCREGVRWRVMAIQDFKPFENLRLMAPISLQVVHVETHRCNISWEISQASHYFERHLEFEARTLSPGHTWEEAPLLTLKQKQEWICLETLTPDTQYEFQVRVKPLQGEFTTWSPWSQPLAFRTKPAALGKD
The method, then: The affinity of IL-2 variants to IL-2 receptors, IL2-RA and IL2-RB, was analyzed using surface plasmon resonance (SPR). The IL-2 variants were diluted to a concentration of 2 ug/mL then immobilized on CM5 chip (GE Healthcare, Cat#BR-1005-30). The receptors IL-2RA or IL-2RB (Sino) were injected at concentrations 100, 50, 25, 12.5, 6.25, 3.125 nM with an association time of 150 seconds and dissociation time of 240 seconds. Biacore T200 (GE healthcare) was used to measure and analyze affinity of each IL-2 variant, where the results were analyzed with a 1:1 binding model by BIAevaluation software.

Assay [2] concerns the target T2, IL2-RA (UniProt P01589 22-213, limits assumed).
T2 construct: Bought recombinant protein (Sino); also called CD25; IL-2Rα
T2 sequence (looked up): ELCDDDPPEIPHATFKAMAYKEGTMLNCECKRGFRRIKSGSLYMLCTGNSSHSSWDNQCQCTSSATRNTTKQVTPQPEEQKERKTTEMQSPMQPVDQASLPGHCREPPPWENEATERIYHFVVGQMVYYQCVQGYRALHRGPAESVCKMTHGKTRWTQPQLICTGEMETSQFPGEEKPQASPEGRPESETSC
The method, then: (§1) The affinity of additional IL-2 variants to IL-2 receptors, IL2-RA and IL2-RB, was analyzed using surface plasmon resonance (SPR). The IL-2 variants were diluted to a concentration of 2 ug/mL then immobilized on CM5 chip (GE Healthcare, Cat#BR-1005-30). Biacore T200 (GE healthcare) was used to measure and analyze affinity of each IL-2 variant, where the results were analyzed with a 1:1 binding model by BIAevaluation software, as described in Example 4.

The target in assay [3] is T1, IL2-RB. The method, then:
as §1
This is another data set of the same source.

B1: IL2_V1 Fc fusion protein (Fc fusion)
chain: APTSSSTKKTQLQLEHLLLDLQMILNGINNYKNPKLTAMLTKKFYMPKKATELKHLQCLEEELKPLEEVLNLAQSKNFHLDPRDVVSNINVFVLELKGSETTFMCEYADETATIVEFLNRWITFCQSIISTLTGGGGSSNTKVDKRVEPKSCDKTHTCPPCPAPPVAGPSVFLFPPKPKDTLMISRTPEVTCVVVDVSHEDPEVQFNWYVDGVEVHNAKTKPREEQFNSTFRVVSVLTVVHQDWLNGKEYKCKVSNKGLPAPIEKTISKTKGQPREPQVYTLPPSREEMTKNQVSLTCLVKGFYPSDIAVEWESNGQPENNYKTTPPMLDSDGSFFLYSKLTVDKSRWQQGNVFSCSVMHEALHNHYTQKSLSLSPGK
With B1, in assay [1], the Kd was 66.6 nM, the off-rate (koff) stood at 0.0116 s⁻¹ and the association rate constant (kon) turned out to be 174000 M⁻¹ s⁻¹.

B2: IL2_V4_R38A Fc fusion protein (Fc fusion)
chain: APTSSSTKKTQLQLEHLLLDLQMILNGINNYKNPKLTAMLTFKFYMPKKATELKHLQCLEEELKPLEEVLNLAQSKNFHFDPRDVISNINVFVLELKGSETTFMCEYADETATIVEFLNRWITFCQSIISTLTGGGGSSNTKVDKRVEPKSCDKTHTCPPCPAPPVAGPSVFLFPPKPKDTLMISRTPEVTCVVVDVSHEDPEVQFNWYVDGVEVHNAKTKPREEQFNSTFRVVSVLTVVHQDWLNGKEYKCKVSNKGLPAPIEKTISKTKGQPREPQVYTLPPSREEMTKNQVSLTCLVKGFYPSDIAVEWESNGQPENNYKTTPPMLDSDGSFFLYSKLTVDKSRWQQGNVFSCSVMHEALHNHYTQKSLSLSPGK
As to B2, in assay [2], the affinity, expressed as Kd, was 3.31 nM; the koff was 0.00227 s⁻¹; the kon turned out to be 685000 M⁻¹ s⁻¹. In addition, in assay [3], the Kd turned out to be 7.33 nM, the koff was 0.00556 s⁻¹ and the on-rate (kon) is 759000 M⁻¹ s⁻¹.

B3: IL2_V3 Fc fusion protein (Fc fusion)
chain: APTSSSTKKTQLQLEHLLLDLQMILNGINNYKNPKLTAMLTKKFYMPKKATELKHLQCLEEELKPLEEVLNLAQSKNFHFDPRDLVSNINVFVLELKGSETTFMCEYADETATIVEFLNRWITFCQSIISTLTGGGGSSNTKVDKRVEPKSCDKTHTCPPCPAPPVAGPSVFLFPPKPKDTLMISRTPEVTCVVVDVSHEDPEVQFNWYVDGVEVHNAKTKPREEQFNSTFRVVSVLTVVHQDWLNGKEYKCKVSNKGLPAPIEKTISKTKGQPREPQVYTLPPSREEMTKNQVSLTCLVKGFYPSDIAVEWESNGQPENNYKTTPPMLDSDGSFFLYSKLTVDKSRWQQGNVFSCSVMHEALHNHYTQKSLSLSPGK
As to B3, in assay [1], the Kd amounted to 218 nM, the koff is 0.0179 s⁻¹ and the kon was found to be 82400 M⁻¹ s⁻¹.

B4: IL2_V4_F42A Fc fusion protein (Fc fusion)
chain: APTSSSTKKTQLQLEHLLLDLQMILNGINNYKNPKLTRMLTAKFYMPKKATELKHLQCLEEELKPLEEVLNLAQSKNFHFDPRDVISNINVFVLELKGSETTFMCEYADETATIVEFLNRWITFCQSIISTLTGGGGSSNTKVDKRVEPKSCDKTHTCPPCPAPPVAGPSVFLFPPKPKDTLMISRTPEVTCVVVDVSHEDPEVQFNWYVDGVEVHNAKTKPREEQFNSTFRVVSVLTVVHQDWLNGKEYKCKVSNKGLPAPIEKTISKTKGQPREPQVYTLPPSREEMTKNQVSLTCLVKGFYPSDIAVEWESNGQPENNYKTTPPMLDSDGSFFLYSKLTVDKSRWQQGNVFSCSVMHEALHNHYTQKSLSLSPGK
With B4, in assay [2], binding was put at a Kd of 6.75 nM, the koff is 0.000789 s⁻¹ and the kon was 117000 M⁻¹ s⁻¹. Further, in assay [3], the Kd stood at 9.43 nM, the koff came out at 0.00492 s⁻¹ and the kon was 522000 M⁻¹ s⁻¹.

B5: supMD IL-2 Fc fusion protein (Fc fusion)
chain: APTSSSTKKTQLQLEHLLLDLQMILNGINNYKNPKLTAMLTKKFYMPKKATELKHLQCLEEELKPLEEVLNLAQSKNFHFDPRDVVSNINVFVLELKGSETTFMCEYADETATIVEFLNRWITFCQSIISTLTGGGGSSNTKVDKRVEPKSCDKTHTCPPCPAPPVAGPSVFLFPPKPKDTLMISRTPEVTCVVVDVSHEDPEVQFNWYVDGVEVHNAKTKPREEQFNSTFRVVSVLTVVHQDWLNGKEYKCKVSNKGLPAPIEKTISKTKGQPREPQVYTLPPSREEMTKNQVSLTCLVKGFYPSDIAVEWESNGQPENNYKTTPPMLDSDGSFFLYSKLTVDKSRWQQGNVFSCSVMHEALHNHYTQKSLSLSPGK
For the molecule B5, in assay [1], binding was characterised by a dissociation constant (Kd) of 29.5 nM, the koff amounted to 0.004 s⁻¹ and the kon was found to be 136000 M⁻¹ s⁻¹.

B6: IL2_V5 Fc fusion protein (Fc fusion)
chain: APTSSSTKKTQLQLEHLLLDLQMILNGINNYKNPKLTAMLTKKFYMPKKATELKHLQCLEEELKPLEEVLNLAQSKNFHFDPRDVVSNINVIVLELKGSETTFMCEYADETATIVEFLNRWITFCQSIISTLTGGGGSSNTKVDKRVEPKSCDKTHTCPPCPAPPVAGPSVFLFPPKPKDTLMISRTPEVTCVVVDVSHEDPEVQFNWYVDGVEVHNAKTKPREEQFNSTFRVVSVLTVVHQDWLNGKEYKCKVSNKGLPAPIEKTISKTKGQPREPQVYTLPPSREEMTKNQVSLTCLVKGFYPSDIAVEWESNGQPENNYKTTPPMLDSDGSFFLYSKLTVDKSRWQQGNVFSCSVMHEALHNHYTQKSLSLSPGK
In assay [1], B6 displayed a Kd of 76.7 nM, a koff of 0.00936 s⁻¹ and an on-rate (kon) of 122000 M⁻¹ s⁻¹.

B7: IL2_V4 Fc fusion protein (Fc fusion)
chain: APTSSSTKKTQLQLEHLLLDLQMILNGINNYKNPKLTAMLTKKFYMPKKATELKHLQCLEEELKPLEEVLNLAQSKNFHFDPRDVISNINVFVLELKGSETTFMCEYADETATIVEFLNRWITFCQSIISTLTGGGGSSNTKVDKRVEPKSCDKTHTCPPCPAPPVAGPSVFLFPPKPKDTLMISRTPEVTCVVVDVSHEDPEVQFNWYVDGVEVHNAKTKPREEQFNSTFRVVSVLTVVHQDWLNGKEYKCKVSNKGLPAPIEKTISKTKGQPREPQVYTLPPSREEMTKNQVSLTCLVKGFYPSDIAVEWESNGQPENNYKTTPPMLDSDGSFFLYSKLTVDKSRWQQGNVFSCSVMHEALHNHYTQKSLSLSPGK
On to B7, for which, in assay [3], the Kd was 8.99 nM, the koff stood at 0.00532 s⁻¹ and the kon turned out to be 592000 M⁻¹ s⁻¹. In assay [1], this molecule had a dissociation constant (Kd) of 29 nM, a koff of 0.00511 s⁻¹ and a kon of 176000 M⁻¹ s⁻¹.

B8: IL2_V4_R38A_F42A Fc fusion protein (Fc fusion)
chain: APTSSSTKKTQLQLEHLLLDLQMILNGINNYKNPKLTAMLTAKFYMPKKATELKHLQCLEEELKPLEEVLNLAQSKNFHFDPRDVISNINVFVLELKGSETTFMCEYADETATIVEFLNRWITFCQSIISTLTGGGGSSNTKVDKRVEPKSCDKTHTCPPCPAPPVAGPSVFLFPPKPKDTLMISRTPEVTCVVVDVSHEDPEVQFNWYVDGVEVHNAKTKPREEQFNSTFRVVSVLTVVHQDWLNGKEYKCKVSNKGLPAPIEKTISKTKGQPREPQVYTLPPSREEMTKNQVSLTCLVKGFYPSDIAVEWESNGQPENNYKTTPPMLDSDGSFFLYSKLTVDKSRWQQGNVFSCSVMHEALHNHYTQKSLSLSPGK
On to B8, for which, in assay [2], binding was characterised by a dissociation constant (Kd) of 1230 nM, the koff was determined as 0.00562 s⁻¹ and the kon turned out to be 4560 M⁻¹ s⁻¹. In assay [3], this molecule returned a Kd of 7.5 nM, a koff of 0.00504 s⁻¹ and a kon of 671000 M⁻¹ s⁻¹.

B9: IL2_V2 Fc fusion protein (Fc fusion)
chain: APTSSSTKKTQLQLEHLLLDLQMILNGINNYKNPKLTAMLTKKFYMPKKATELKHLQCLEEELKPLEEVLNLAQSKNFHFRPRDVVSNINVFVLELKGSETTFMCEYADETATIVEFLNRWITFCQSIISTLTGGGGSSNTKVDKRVEPKSCDKTHTCPPCPAPPVAGPSVFLFPPKPKDTLMISRTPEVTCVVVDVSHEDPEVQFNWYVDGVEVHNAKTKPREEQFNSTFRVVSVLTVVHQDWLNGKEYKCKVSNKGLPAPIEKTISKTKGQPREPQVYTLPPSREEMTKNQVSLTCLVKGFYPSDIAVEWESNGQPENNYKTTPPMLDSDGSFFLYSKLTVDKSRWQQGNVFSCSVMHEALHNHYTQKSLSLSPGK
In the case of B9, in assay [1], the Kd was 124 nM, the dissociation rate constant (koff) was found to be 0.0158 s⁻¹ and the kon came out at 128000 M⁻¹ s⁻¹.
